Results on two substances are retold here after publication doi:10.1101/2021.10.24.465637.

In experiment [1] the target is SGHRT-FLAG (human SGHRT, C-terminal FLAG) (human). The experiment in a line: SDS-PAGE and Western blot. (Immunoblotting shows a protein as a band on a membrane.)
Experiment [2] concerns the target SGHRT-HA (human SGHRT, C-terminal HA) (human). The experiment in a line: SDS-PAGE and Western blot.

Take “SGHRT-FLAG (human SGHRT, C-terminal FLAG) (peptide)”: the stoichiometry N (in general, a count of units in the complex or per binding partner) in experiment [1] came to 2.
“SGHRT-HA (human SGHRT, C-terminal HA) (peptide)”: in experiment [2], the stoichiometry N amounted to 2.
